For 140 substances, amyloid nucleation score results are on record in the supplement of paper PMC12042874.

± gives the uncertainty stated by the source.

This series in a line: amyloid nucleation score (Sup35N fusion, yeast selection) (log enrichment); library NNK2; higher = more nucleation; inactive = no reads after selection. In short, it runs like this: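 For the nucleation score, DiMSum gave the log enrichment of output over input reads, centred on the mode score of non-aggregating sequences. Psi-negative yeast expressing Sup35N fused to peptides of 20 random codons were induced with 100 μM copper sulfate for 24 hours and grown 7 days at 30°C on medium lacking adenine and uracil. Input and output plasmid inserts were Illumina-sequenced, and sequences with under 100 input reads were excluded.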

With NVNGLLSTN, the amyloid nucleation score is -0.172 ± 0.76.
The figure for TAQILLSTGSVLHLMLGGSP is 3.02 ± 0.088.
Next, FAYKNRNM: -0.307 ± 0.41; VSCLTAPILSMENPSEEYVG: 1.55 ± 0.35; RVRIVPDCFNVAACGGWYMD: -0.062 ± 0.45.
The figure for STTYFDVCMVGFWYNFSTWG is -0.994 ± 1.1.
For the substance VLFNYKLITGSMFCTRHTRP, the amyloid nucleation score was determined as 2.08 ± 0.11.
The figure for FCIQK is -0.114 ± 0.55; for MITVFGLVTFVVIVSTESPI it is 3.8 ± 0.075; for TGGRF it is 0.264 ± 0.8.
The entry for NNFATLSKL is “inactive”; for SHHLRKSFCPC it is -0.279 ± 0.5; for LLGWPRLYLWTE it is 0.402 ± 0.42.
The figure for WLNLGMNLLLE is 3.77 ± 0.093; for FAFMITPCMLTSRMFSYGHA it is -0.18 ± 0.36; for PGEGMSQEERLMLCRCVWVT it is 0.874 ± 0.52.
As for DSLKFSLRLVHLPLPIYGCC, the amyloid nucleation score amounted to 1.5 ± 0.43.
The figure for LIVCLFISFFAYELCYESAF is 0.403 ± 0.62; for NWGSRNFCW it is -1.26 ± 1.1; for YWWGLENFTYCEDDAVSHKS it is 0.294 ± 0.8.
Next, LCFYK: 0.388 ± 0.32.
The figure for SYVFAPWFLVILPKSISMD is 4.58 ± 0.079.
Consider VSRSSKMMFFVDHLRYC, for which the amyloid nucleation score came to 1.55 ± 0.58.
In the case of WKLAHISLDFHFLYSR, the amyloid nucleation score was -0.269 ± 0.61.
As to TNDYSFWVLSHTANQPSLME, the amyloid nucleation score entry was “inactive”.
The figure for FDTVGYSACCCWP is 4.78 ± 0.11.
The figure for WNTAYGRVLASL is 2.32 ± 0.092; for WCVMLGLGSQGSRILRVLRM it is 0.29 ± 0.29; for NYHPFLVF it is -0.909 ± 0.54.
Next, LIVSPCN: -0.059 ± 0.26; GVAYRWPFGQK: 0.155 ± 1.1.
For FDGTIYCPSWILWETPGVNK, the amyloid nucleation score entry was “inactive”.
The figure for SGPLVWLLLWQFNDGLCGWG is -0.656 ± 0.49.
The entry for DQVLHCSLDQSVGGSDQL is “inactive”.
GYCQVKSGCCSGEECCFWMI yielded an amyloid nucleation score of 3.68 ± 0.099.
For LHCLRDIIKRNKDSFPQMWG, the amyloid nucleation score was -0.607 ± 0.33.
Next, RIYFTPRYLDIDFYWTLNAV: -0.598 ± 0.64; ECRGCAWA: 3.95 ± 0.046.
The entry for SNGLMSACRWYLPAFLED is “inactive”; for RPCFCFSMFYGRKW it is 0.553 ± 0.8.
The figure for PRHSSSPALILWNYPNLTGI is -0.708 ± 0.37.
For the substance TVSYCVAYSMQQMLS, the amyloid nucleation score is -0.072 ± 1.1.
Next, HYRYEVDYLSELCIPDGMPM: -0.197 ± 0.24; YWNEP: 0.15 ± 0.37; IASISERLYCFAGPTIRCNR: 0.338 ± 0.43.
Next, LWAGDLFDRGP: 0.709 ± 0.66; VFEFVVDNHLNIRLTRGGFM: 4.93 ± 0.084; FGVITNSGCGRLFAEEKTRW: 1.15 ± 0.16.
Next, LCTRHACNIYGPLPNAHLVR: 0.643 ± 0.31; TGTAVG: 3.23 ± 0.073; ILYSSVVSLSCTLAKGNDYT: 1.77 ± 0.4.
For the substance TAMEVPHRIWLR, the amyloid nucleation score is -0.305 ± 1.1.
MCEFLIYWIYNFSFVSSPRL yielded an amyloid nucleation score of 0.157 ± 1.
PHAHRNANLVWHQGKAPKGG came in with an amyloid nucleation score of 1.12 ± 0.53.
The figure for SYNYLYILRCYYLDVHSFRT is -0.788 ± 0.76.
Next, KWNRWYVALCLVSV: 10.08 ± 0.03; CGLVAVNDYLGVRVGLFHIC: -1.01 ± 1.1.
TGWNDATRY: the amyloid nucleation score was -0.467 ± 0.49.
Consider WLKNKLMLVLFTESLPNRSP, for which the amyloid nucleation score was -1.02 ± 0.61.
Next, RPFKYCVRRLANRA: 0.135 ± 0.65; NNYAADGRCNYWGSISLKVR: “inactive”.
The entry for VFWSVYFDACLVFMTVSYLL is “inactive”; for ILRLIL it is 0.531 ± 0.51.
LGGRYDVVMLIYLQSALFMG had an amyloid nucleation score of 0.285 ± 1.
The entry for GSCNVMGRCRIFGLGFWGIV is “inactive”; for LLKFRVCPW it is 4.5 ± 0.086.
Consider YGNCVHHVRGGLHAYRDHNC, for which the amyloid nucleation score is -0.137 ± 0.33.
Next, SLCQSLDSWCYFLLWHWQWY: -0.637 ± 1.1; NLGCPYCISVGC: 0.649 ± 0.42.
Next, GLCYKFVRFSYA: 2.16 ± 0.1.
GQNLDRSVKGWCTASHTGSF: the amyloid nucleation score is 0.554 ± 0.54.
Regarding MDFYYLGSVCHVDLLAQYLV, the amyloid nucleation score result was “inactive”.
The figure for TWLSCPTLNHLVTNMPWY is -0.759 ± 0.39.
With MDPSICSDSLRFGLYWISRR, the amyloid nucleation score was determined as 3.93 ± 0.12.
Next, FSDNKLFA: 0.715 ± 0.81; TLDVIGIYLAGVGRFDGKSA: 0.261 ± 0.49.
The figure for TTEWFHESFREQFVMESFVS is -1.26 ± 0.41; for TMIYMHRLLLNVVDVCCHWF it is 0.261 ± 0.74; for GRENWELHIRYVR it is 4.06 ± 0.063.
Next, TGKYICRW: -0.843 ± 0.38; RIKRETHAAFNVYSIYAVRY: 0.183 ± 0.3; FKGDVHANHFICQMLFAPFR: 8.596 ± 0.057.
SRLSLIFDSIYLCS: the amyloid nucleation score was 2.97 ± 0.15.
Next, HEMVTRQRLVTSRQYLSLGV: 1.11 ± 0.29; PISNLHILGFHHLTQHDRTV: 1.05 ± 0.3.
The figure for WMYGWERSRVYDGNIVDRRW is 0.035 ± 1; for IVVVLWTFFDG it is -1.09 ± 0.55; for GSASSCGCMMWQCKAICPNS it is -0.4 ± 0.63.
As to GSSWLRPALLVNAMIDWSRV, the amyloid nucleation score worked out at 0.934 ± 0.36.
Next, IGLKVSSFNDKVLSGA: -0.285 ± 0.63.
Consider LPLWLIDIALFLSFCIVGQS, for which the amyloid nucleation score was -0.369 ± 1.1.
Take FYAVHLCLTYALGCRLVTSC: the amyloid nucleation score is -0.932 ± 0.76.
Next, KHIWAMNGCYSLLLKNPALV: -0.649 ± 1.1.
The figure for YAVLIMYYALAKAWWSLKYG is -0.002 ± 1; for PICESWHFSLIVLMLFLNWE it is “inactive”; for FCSVTMHKKMN it is -0.195 ± 0.38.
As to IRRWFRLNNGRM, the amyloid nucleation score is -0.113 ± 0.79.
In the case of FWSCVLSFVYN, the amyloid nucleation score was determined as 6.1 ± 0.067.
The figure for IIRYTSILWKINGSGVNFWF is -0.67 ± 0.55; for YSDISQTRSASAIALGECRG it is -0.879 ± 0.64; for NCQYFMRGFSVISSTFGMLS it is -0.395 ± 0.76.
The figure for AGFSSDGLQVMIIYD is 0.379 ± 0.31; for YMFRDQVWYMTYKDYGHGIR it is -0.249 ± 1.1; for GLTPSISSLRCIGSRFGKFS it is 0.86 ± 0.46.
VFCGFDIVFCKRAFGSKIYL: the amyloid nucleation score was -0.632 ± 1.1.
The figure for DLTCRTSLSRGWKVLASSNG is 0.413 ± 0.31; for YSMLQF it is “inactive”.
The figure for IVSLCFNNWGSYRVNGQYLY is 6.564 ± 0.033; for FVGCYNSRK it is 2.4 ± 0.08; for FWSSARKDLSATKKGVGFVG it is 5.52 ± 0.06.
Next, GSPNLVSV: 0.401 ± 0.56; FRTYSAVVEWARNKYNLFCG: -0.271 ± 0.28.
Take RFDDASGDMVNAEG: the amyloid nucleation score came out at 4.6 ± 0.05.
Next, NCESQVVDMYITIRLFVLWV: 0.202 ± 0.18; IWVGSILTQSPVVDGYFRCR: 0.145 ± 0.35; IKSVFMCYWGLDAVGVTAER: 8.785 ± 0.047.
The figure for ILHPGSNLPRCRDMCILKGW is -0.226 ± 0.54; for LTISRSNLGARPF it is -0.053 ± 0.39.
The figure for RIWMLY is 0.42 ± 0.66.
DGYIELS showed an amyloid nucleation score of 0.302 ± 0.41.
The figure for SSCIWLVFKCSWFGF is 4.421 ± 0.029; for FVCFPRSVAQRDDSSGVGGN it is -0.121 ± 1.1.
Next, KAEHVFFVYRGLTEVFASGL: “inactive”.
The figure for YPDIYGFEKRIDSPSNLGML is 0.433 ± 0.6; for TYDLGCDYPIVPYVNFLCM it is 6.59 ± 0.072; for GLTFRFGTGTSLSRRFDATV it is 6.507 ± 0.045.
Turning to CKWEFKWPYWGDYLVFMCK, the amyloid nucleation score was -0.679 ± 1.1.
The figure for DFWTARFGIGCCGVPCDRFF is -0.507 ± 0.79; for YNPVPFL it is -0.788 ± 0.39; for LLSVVKCACEMRTTKAVIGA it is 2.05 ± 0.35.
Next, MRWLYFPLF: -0.801 ± 0.56.
The figure for AVTIMCPAGLTMANSLVFKQ is 5.18 ± 0.07; for VSLMFSGVIWAIWLMLFGVG it is 1.13 ± 0.61; for IFSKVRLFFRRGMNFVMGEV it is -1.64 ± 0.77.
The substance TIGPKFLLIIKMRCLWMNEE gave an amyloid nucleation score of 0.105 ± 1.1.
As for SRRFFVCL, the amyloid nucleation score entry was “inactive”.
Consider FSGTF, for which the amyloid nucleation score was -1.07 ± 0.76.
The figure for GMGVYYVSSFSLRLWNGMTV is 1.65 ± 0.13; for RVSVDTWQAYMAICWSYVGL it is 0.915 ± 0.23; for STVGEVYVGLALMDVWGMEW it is 0.559 ± 0.32.
